In article PMC13544220, “Glycemic and bodyweight effects of GIPR coding variation reflect differences in surface expression and intrinsic functional impairment” (Science Advances, 2026):
Where a chain is given by its changes, count along the chain named.

B1: p.Glu288Gly (protein, UniProt P48546 22-466, looked up, variant E288G)
Gastric inhibitory …: RAETGSKGQTAGELYQRWERYRRECQETLAAAEPPSGLACNGSFDMYVCWDYAAPNATARASCPWYLPWHHHVAAGFVLRQCGSDGQWGLWRDHTQCENPEKNEAFLDQRLILERLQVMYTVGYSLSLATLLLALLILSLFRRLHCTRNYIHINLFTSFMLRAAAILSRDRLLPRPGPYLGDQALALWNQALAACRTAQIVTQYCVGANYTWLLVEGVYLHSLLVLVGGSEEGHFRYYLLLGWGAPALFVIPWVIVRYLYENTQCWGRNEVKAIWWIIRTPILMTILINFLIFIRILGILLSKLRTRQMRCRDYRLRLARSTLTLVPLLGVHEVVFAPVTEEQARGALRFAKLGFEIFLSSFQGFLVSVLYCFINKEVQSEIRRGWHHCRLRRSLGEEQRQLPERAFRALPSGSGPGEVPTSRGLSSGTLPGPGNEASRELESYC
B2: p.Ile378Met (protein, UniProt P48546 22-466, looked up, variant I378M)
Gastric inhibitory …: B1 Gastric inhibitory … with G267E, I357M
B3: p.Ser64Ala (protein, UniProt P48546 22-466, looked up, variant S64A)
Gastric inhibitory …: B1 Gastric inhibitory … with S43A, G267E
B4: p.Ile403Val (protein, UniProt P48546 22-466, looked up, variant I403V)
Gastric inhibitory …: B1 Gastric inhibitory … with G267E, I382V
B5: p.Leu100Phe (protein, UniProt P48546 22-466, looked up, variant L100F)
Gastric inhibitory …: B1 Gastric inhibitory … with L79F, G267E
B6: p.Arg341Pro (protein, UniProt P48546 22-466, looked up, variant R341P)
Gastric inhibitory …: B1 Gastric inhibitory … with G267E, R320P
B7: p.Ser415Ile (protein, UniProt P48546 22-466, looked up, variant S415I)
Gastric inhibitory …: B1 Gastric inhibitory … with G267E, S394I
B8: p.Arg336Pro (protein, UniProt P48546 22-466, looked up, variant R336P)
Gastric inhibitory …: B1 Gastric inhibitory … with G267E, R315P
B9: p.Arg101His (protein, UniProt P48546 22-466, looked up, variant R101H)
Gastric inhibitory …: B1 Gastric inhibitory … with R80H, G267E
B10: p.Glu463Gln (protein, UniProt P48546 22-466, looked up, variant E463Q)
Gastric inhibitory …: B1 Gastric inhibitory … with G267E, E442Q
B11: p.Asp66Gly (protein, UniProt P48546 22-466, looked up, variant D66G)
Gastric inhibitory …: B1 Gastric inhibitory … with D45G, G267E
B12: p.Ser447Thr (protein, UniProt P48546 22-466, looked up, variant S447T)
Gastric inhibitory …: B1 Gastric inhibitory … with G267E, S426T
B13: p.Thr116Arg (protein, UniProt P48546 22-466, looked up, variant T116R)
Gastric inhibitory …: B1 Gastric inhibitory … with T95R, G267E
B14: p.Gly438Ser (protein, UniProt P48546 22-466, looked up, variant G438S)
Gastric inhibitory …: B1 Gastric inhibitory … with G267E, G417S
B15: p.Arg300Trp (protein, UniProt P48546 22-466, looked up, variant R300W)
Gastric inhibitory …: B1 Gastric inhibitory … with G267E, R279W
B16: p.Arg404His (protein, UniProt P48546 22-466, looked up, variant R404H)
Gastric inhibitory …: B1 Gastric inhibitory … with G267E, R383H
B17: p.Glu354Gln (protein, UniProt P48546 22-466, looked up, variant E354Q)
Gastric inhibitory …: B1 Gastric inhibitory … with G267E, E333Q

Assays:
[1] = system: wild-type and variant SNAP-GIPR; assay: Surface SNAP-GIPR expression (SNAP-tag labelling) in AD293 cells; type: cell-based, human; conditions: level of surface expression, based on in vitro functional data in AD293 cells; summary classification
Method: Twenty-four hours before the experiment, AD293 or INS-1 cells were reverse transfected with GIPR variant or wild-type plasmids using Lipofectamine 2000 in 96-well, clear-bottom, black microplates precoated with poly-D-lysine. All variants were tested in parallel on each occasion to control for transfection efficiency differences between experiments. Cells were then labeled using the cell-impermeant probe SNAP-Surface Alexa Fluor 647 (500 nM, New England Biolabs, USA) for 10 min at room temperature to label only surface GIPR. […] Several fields of view (FOVs) were acquired within each well using a 20X, 0.75–numerical aperture (NA) air objective. Surface GIPR fluorescence was quantified after flat-field correction using BaSiC ([72]) and segmenting using Phantast ([73]), which generates a mask based on the phase contrast images to demarcate cell versus noncell. Wide-field imaging of the surface-specific labeling achieved by SNAP-Surface probes means that surface expression can be established from whole-cell fluorescence, after subtracting nonspecific fluorescence from a separate well containing nontransfected cells processed in parallel from the same experiment. Data were normalized by dividing by the average specific signal across each experiment, or by the wild-type value, as indicated in the figure legends.

[2] = system: wild-type and variant SNAP-GIPR; assay: Single-concentration GIP cAMP response by HTRF in AD293 cells; type: cell-based, human; conditions: cAMP responses to 100 pM GIP in AD293 cells; summary classification (decrease/neutral/increase)
Method: All variants were tested in parallel on each occasion to control for transfection efficiency differences between experiments.

| Molecule | Surface expression [1] | cAMP response [2] |
| --- | --- | --- |
| B1 | decrease | decrease |
| B2 | increase | neutral |
| B3 | decrease | decrease |
| B4 | neutral | neutral |
| B5 | neutral | neutral |
| B6 | decrease | decrease |
| B7 | neutral | neutral |
| B8 | neutral | neutral |
| B9 | decrease | decrease |
| B10 | neutral | neutral |
| B11 | decrease | decrease |
| B12 | neutral | neutral |
| B13 | neutral | decrease |
| B14 | neutral | neutral |
| B15 | decrease | decrease |
| B16 | decrease | decrease |
| B17 | decrease | increase |
